Results: patent publication US20220089765A1, “CD31 COMPETITORS AND USES THEREOF” (ENCEFA, priority 2019, published 2022)

What was measured:
[1] = test system: Experimental Autoimmune Encephalomyelitis (EAE) mouse model; assay: EAE mouse model of multiple sclerosis, clinical score; type: in vivo, mice; settings: 15 mg/kg iv at symptom onset (10 days after MOG injection) and at day 20
Excerpt: Multiple sclerosis (MS) is a progressive inflammatory and demyelinating disease of the human central nervous system (CNS) in which an important role for the immune system in the pathogenesis of the disease is suspected (Lassmann, 2008. J Neurol Sci. 274(1-2):45-7). EAE is an induced disease in mice that affects the central nervous system and constitutes a model for human MS. After a subcutaneous injection of an emulsion with a Complete Freund's Adjuvant (CFA) mixed with oligodendrocyte membrane proteins like myelin oligodendrocyte glycoprotein (MOG), an immune response starts in the periphery and, within 2 weeks, causes inflammation in the CNS. In the same time, we can observe, a progressive ascending paralysis (tail to hindlimb to forelimb). To determine whether B08 anti-CD38 antibody could have beneficial effect in this disease, we injected this antibody (15 mg/kg at symptom onset (10 days after MOG injection) and at day 20).
Animals were anesthetized via inhalation with isoflurane (15 min). Mouse were immunized by subcutaneous injection of an emulsion containing 100 μg MOG peptide 35-55 in Complete Freund's Adjuvant and 500 μg HKMT (Heat-killed Mycobacterium tuberculosis) on day 0. Two hours later, animals received an intraperitoneal injection of 500 ng of pertussis toxin on day 0 and day 2. […]
After immunization, animals were daily monitored for weight and clinical symptoms.

[2] = test system: Dextran Sulfate Sodium (DSS)-induced colitis mouse model; assay: DSS-induced colitis mouse model, colon length; type: in vivo, mice; settings: 15 mg/kg iv when DSS treatment began; 3% DSS for 5 days
Excerpt: Administration of DSS causes human ulcerative colitis-like pathologies due to its toxicity to colonic epithelial cells, which results in compromised mucosal barrier function. Clinical observations similar to human pathologies, such as weight loss, diarrhea and occult blood in stool, are commonly observed in the DSS model. Moreover, diminution of the colon's length is characteristic of this model.
Experimental colitis was induced in mice by giving drinking water ad libitum containing 3% (w/v) DSS for 5 days, while control mice received tap water only. Test compounds were intravenously administered (15 mg/kg) when DSS treatment began. Mice were sacrificed 9 days after the beginning of DSS treatment.

[3] = test system: human peripheral blood mononuclear cells (PBMCs); assay: IL-10 release from human PBMCs in vitro (ELISA); type: cell-based; settings: PBMCs from 3 healthy donors; 10 μg/ml; LPS 500 ng/mL and interferon-γ 1B 100 ng/mL; 24 hours
Description: 3 healthy volunteers (Donor 1: Donor 2: Donor 3) served as blood donors. Venous blood (5 mL) was collected into heparinized tubes and immediately processed. Briefly, blood was diluted 1/1 in pre-warmed RPMI 1640 medium. PBMCs were isolated using gradient centrifugation in Ficoll solution (Sigma; 300×g, 30 min). Isolated PBMCs were re-suspended in 1 volume of pre-warmed RPMI 1640 medium and centrifuged again (300×g, 30 min). PBMCs were re-suspended in RPMI 1640 medium supplemented with 10% human serum (Sigma-Aldrich) at a concentration of 10^7 cells per mL. Cells were seeded in 96 well microplate (100 μL per well). Test compounds (10 μg/ml), LPS (500 ng/mL) and interferon-γ 1B (100 ng/mL) were added to PBMCs culture immediately after plating. After 24 hours, cell culture supernatants were collected and frozen at −80° C. for further processing.
IL-10 levels in cell culture supernatants were assayed using an ELISA human IL-10 kit (Ozyme®) according to the indications for use specified by the manufacturer.

[4] = test system: dopaminergic neurons of the right substantia nigra pars compacta; assay: 6-OHDA mouse model, number of DA (TH+) neurons; type: in vivo, mice
Description: We aimed at determining whether B08 or D06 anti-CD38 antibodies were neuroprotective in vivo against neurodegeneration induced by oxidative stress. Mouse were administered with 6-hydroxydopamine (6-OHDA) in the right striatum. Since 6-OHDA is an analogue of dopamine, it is transported in dopaminergic neurons through the dopamine transporter, resulting in a specific degeneration and loss of dopaminergic neurons of the right substantia nigra pars compacta. It has been extensively used as a test system for novel symptomatic agents and for assessment of neuroprotective and neurorepair strategies (Galindo et al., 2014. In Kostrzewa (Ed.), Handbook of neurotoxicity (1st Ed., pp. 639-651). New York: Springer-Verlag). Since 6-OHDA is injected unilaterally in the right striatum, left striatum remains unaffected and each mouse is its own control.
Two in vivo mouse models were used: the 6-OHDA mouse model and the MPTP mouse model. For the 6-OHDA mouse model, the intoxication protocol was based on the unilateral stereotaxic intrastriatal injection of 6-OHDA in the right striatum. Intracerebral or intravenous injections of treatments were made either the day before the surgical stereotaxic procedure, concomitantly with 6-OHDA during the surgical stereotaxic procedure, or two days after 6-OHDA injection. Animals were sacrificed 8 days after the surgical stereotaxic procedure.
For unilateral 6-OHDA mouse model, animals were anesthetized using Chloral hydrate (400 mg/kg, i.p.) and placed into a stereotactic frame adapted to mice. The injection was performed using a Hamilton syringe at the following coordinates: AP: […], ML: […], DV: […] (corresponding to the atlas of Franklin and Paxinos, 1997). A total volume of 2.5 μL containing or not 5 μg of 6-OHDA diluted in PBS in the presence or the absence of test treatments was injected. The needle was left in place for 10 min after the injection before retraction.
Mice were sacrificed by cervical dislocation, and beheaded to collect brain and blood samples. The brain was fixed in a paraformaldehyde solution (4%) during 1 day before being soaked in sucrose (30%) during 2 days and then froze at −80° C. for further analysis.
Each brain was sliced using a freezing microtome at −30° C. The thickness of each slice was 20 μm. The slicing was done around the substantia nigra (80 slices from slice 51 to 63 according to Allen Mouse Brain).
Slices were then washed out in PBS and incubated with anti-Tyrosine Hydroxylase to stain dopaminergic neurons (Abcam®) during 2 days, at 4° C., with agitation. Slices were incubated with corresponding secondary antibody in the presence of DAPI (Sigma Aldrich®) to stain cell's nuclei during 2 hours at room temperature, and mounted on gelatin-coated slides.
The slices were imaged using a Nikon TE2000 U equipped with a Hamamatsu ORCE-ER camera or with a Zeiss Axio Vert.A1 equipped with an axiocam 503 mono camera. Image analysis was done using Image J software or Zen (Zeiss®).

B1: Clone B08: anti-human CD38 antibody, HCVR SEQ ID NO: 33 and LCVR SEQ ID NO: 39 (antibody, V domains shown)
VH: EVQLVESGGSLVKPGGSLRLSCAASGFTFSNYYMNWVRQAPGKGLEWISSISGSSRSIYYADFVKGRFTISRDNAKNSLYLQMNSLRAEDTAVYYCVRSSDDYYYDYGMDVWGRGTLVTVSS
VL: QSVLTQPASVSGSPGQSITISCAGTSSDVGGSYSVSWYQQHPGKAPKLMIYDDSNRPSGVSNRFSGSKSGNTASLTISGLQAEDEADYYCSSYTDYSTRVFGGGTKL
modifications: HCVR B08; LCVR B08
[1]
  clinical score compared with PBS-injected mice: significantly reduced
[2]
  diminution of the colon's length: statistically significantly repressed
[3]
  IL-10 release: statistically significantly increased
[4]; 0.1 mg/kg injected intracerebrally concomitantly with 6-OHDA
  protection of dopaminergic neurons of the right substantia nigra pars compacta: statistically significantly protected
[4]; 15 mg/kg iv one day before 6-OHDA injection
  neuroprotective effect in 6-OHDA model: neuroprotective effect was also observed
[4]; 15 mg/kg iv two days after 6-OHDA injection
  neuroprotective activity in 6-OHDA model when degeneration is ongoing: strong neuroprotective activity
